Reference: article doi:10.1101/585463

What was measured:
[1] = biological target: fully glycosylated CmeA (g2CmeA) (Campylobacter jejuni) (UniProt Q0PBE3); test: SPR
[2] = biological target: non-glycosylated CmeA (g0CmeA), periplasmic fusion protein of the CmeABC multidrug efflux pump (Campylobacter jejuni) (UniProt Q0PBE3); test: SPR

Work on “CmeC, outer membrane associated channel of the CmeABC multidrug efflux pump (natural protein)” yielded a Kd [1] of 5 nM, a koff [1] of 0.00075 s⁻¹ and a kon [1] of 150000 M⁻¹ s⁻¹. The Kd [2] was 17 nM, the koff [2] was 0.0009 s⁻¹ and the kon [2] was 50000 M⁻¹ s⁻¹.
